US20260274985A1 (MYTHIC THERAPEUTICS, published 2026)
Where a chain is given by its changes, count along the chain named.

T1: Human TROP2 Protein, His Tag (Acro Biosystems) (human, UniProt P09758 27-274)
T1 construct: Bought antigen used at 50 nM in the Octet screen; also called TACSTD2; not shown: His tag
T1 sequence (looked up): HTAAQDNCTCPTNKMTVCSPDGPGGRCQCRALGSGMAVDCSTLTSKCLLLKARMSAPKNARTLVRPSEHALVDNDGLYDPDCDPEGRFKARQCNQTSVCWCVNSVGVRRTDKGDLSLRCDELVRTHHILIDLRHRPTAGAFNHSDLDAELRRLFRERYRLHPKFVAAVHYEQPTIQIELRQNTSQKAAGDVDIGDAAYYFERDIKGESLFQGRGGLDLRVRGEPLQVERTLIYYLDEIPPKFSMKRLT

B1: MYT11713 (antibody, V domains shown)
VH: QVQLQESGPGLVKPSETLSLTCTVSGGSISSYGHHWIRQPPGKGLEWIGVIWTSGVTDYNSALMGRVTISVDTSKNQFSLKLSSVTAADTAVYYCARDGDYDRYTMDYWGQGTLVTVSS
VL: DIVMTQSPDSLAVSLGERATINCRASKSVSTSGYSYMHWYQQKPGQPPKLLIYLASNLESGVPDRFSGSGSGTDFTLTISSLQAEDVAVYYCQHSRELPYTFGQGTKLEIK
notes: hu7E6SVG variant, His at HCV position 34 (H1 09); screened as IgG in Expi293 supernatant
B2: MYT11715 (antibody, V domains shown)
VH: B1 VH with H34V, V50H
VL: B1 VL
notes: hu7E6SVG variant, His at HCV position 50 (H2 01); screened as IgG in Expi293 supernatant
B3: MYT11718 (antibody, V domains shown)
VH: B1 VH with H34V, T53H
VL: B1 VL
notes: hu7E6SVG variant, His at HCV position 53 (H2 04); screened as IgG in Expi293 supernatant
B4: MYT11725 (antibody, V domains shown)
VH: B1 VH with H34V, N60H
VL: B1 VL
notes: hu7E6SVG variant, His at HCV position 60 (H2 11); screened as IgG in Expi293 supernatant
B5: MYT11751 (antibody, V domains shown)
VH: B1 VH with H34V
VL: B1 VL with T31H
notes: hu7E6SVG variant, His at LCV position 31 (L1 08); screened as IgG in Expi293 supernatant
B6: MYT11730 (antibody, V domains shown)
VH: B1 VH with H34V, G65H
VL: B1 VL
notes: hu7E6SVG variant, His at HCV position 65 (H2 16); screened as IgG in Expi293 supernatant
B7: MYT11722 (antibody, V domains shown)
VH: B1 VH with H34V, T57H
VL: B1 VL
notes: hu7E6SVG variant, His at HCV position 57 (H2 08); screened as IgG in Expi293 supernatant
B8: MYT11736 (antibody, V domains shown)
VH: B1 VH with H34V, Y101H
VL: B1 VL
notes: hu7E6SVG variant, His at HCV position 101 (H3 06); screened as IgG in Expi293 supernatant
B9: MYT11747 (antibody, V domains shown)
VH: B1 VH with H34V
VL: B1 VL with K27H
notes: hu7E6SVG variant, His at LCV position 27 (L1 04); screened as IgG in Expi293 supernatant
B10: MYT11739 (antibody, V domains shown)
VH: B1 VH with H34V, Y104H
VL: B1 VL
notes: hu7E6SVG variant, His at HCV position 104 (H3 09); screened as IgG in Expi293 supernatant
B11: MYT11729 (antibody, V domains shown)
VH: B1 VH with H34V, M64H
VL: B1 VL
notes: hu7E6SVG variant, His at HCV position 64 (H2 15); screened as IgG in Expi293 supernatant
B12: MYT11733 (antibody, V domains shown)
VH: B1 VH with H34V, D98H
VL: B1 VL
notes: hu7E6SVG variant, His at HCV position 98 (H3 03); screened as IgG in Expi293 supernatant
B13: MYT11737 (antibody, V domains shown)
VH: B1 VH with H34V, D102H
VL: B1 VL
notes: screened as IgG in Expi293 supernatant
B14: MYT11724 (antibody, V domains shown)
VH: B1 VH with H34V, Y59H
VL: B1 VL
B15: MYT11749 (antibody, V domains shown)
VH: B1 VH with H34V
VL: B1 VL with V29H
notes: hu7E6SVG variant, His at LCV position 29 (L1 06); screened as IgG in Expi293 supernatant
B16: MYT11752 (antibody, V domains shown)
VH: B1 VH with H34V
VL: B1 VL with S32H
notes: hu7E6SVG variant, His at LCV position 32 (L1 09); screened as IgG in Expi293 supernatant
B17: MYT11748 (antibody, V domains shown)
VH: B1 VH with H34V
VL: B1 VL with S28H
notes: hu7E6SVG variant, His at LCV position 28 (L1 05); screened as IgG in Expi293 supernatant
B18: MYT11723 (antibody, V domains shown)
VH: B1 VH with H34V, D58H
VL: B1 VL
notes: hu7E6SVG variant, His at HCV position 58 (H2 09); screened as IgG in Expi293 supernatant
B19: MYT11719 (antibody, V domains shown)
VH: B1 VH with H34V, S54H
VL: B1 VL
notes: hu7E6SVG variant, His at HCV position 54 (H2 05); screened as IgG in Expi293 supernatant
B20: MYT11728 (antibody, V domains shown)
VH: B1 VH with H34V, L63H
VL: B1 VL
notes: hu7E6SVG variant, His at HCV position 63 (H2 14); screened as IgG in Expi293 supernatant
B21: MYT11720 (antibody, V domains shown)
VH: B1 VH with H34V, G55H
VL: B1 VL
notes: hu7E6SVG variant, His at HCV position 55 (H2 06); screened as IgG in Expi293 supernatant
B22: MYT11731 (antibody, V domains shown)
VH: B1 VH with H34V, A96H
VL: B1 VL
notes: hu7E6SVG variant, His at HCV position 96 (H3 01); screened as IgG in Expi293 supernatant
B23: MYT11738 (antibody, V domains shown)
VH: B1 VH with H34V, R103H
VL: B1 VL
B24: MYT11735 (antibody, V domains shown)
VH: B1 VH with H34V, D100H
VL: B1 VL
notes: hu7E6SVG variant, His at HCV position 100 (H3 05); screened as IgG in Expi293 supernatant
B25: MYT11746 (antibody, V domains shown)
VH: B1 VH with H34V
VL: B1 VL with S26H
notes: hu7E6SVG variant, His at LCV position 26 (L1 03); screened as IgG in Expi293 supernatant
B26: MYT11740 (antibody, V domains shown)
VH: B1 VH with H34V, T105H
VL: B1 VL
notes: as for B13
B27: MYT11716 (antibody, V domains shown)
VH: B1 VH with H34V, I51H
VL: B1 VL
notes: hu7E6SVG variant, His at HCV position 51 (H2 02); screened as IgG in Expi293 supernatant
B28: MYT11721 (antibody, V domains shown)
VH: B1 VH with H34V, V56H
VL: B1 VL
notes: hu7E6SVG variant, His at HCV position 56 (H2 07); screened as IgG in Expi293 supernatant
B29: MYT11750 (antibody, V domains shown)
VH: B1 VH with H34V
VL: B1 VL with S30H
notes: hu7E6SVG variant, His at LCV position 30 (L1 07); screened as IgG in Expi293 supernatant
B30: MYT11742 (antibody, V domains shown)
VH: B1 VH with H34V, D107H
VL: B1 VL
notes: as for B13
B31: MYT11734 (antibody, V domains shown)
VH: B1 VH with H34V, G99H
VL: B1 VL
notes: hu7E6SVG variant, His at HCV position 99 (H3 04); screened as IgG in Expi293 supernatant
B32: MYT11745 (antibody, V domains shown)
VH: B1 VH with H34V
VL: B1 VL with A25H
notes: hu7E6SVG variant, His at LCV position 25 (L1 02); screened as IgG in Expi293 supernatant
B33: MYT11727 (antibody, V domains shown)
VH: B1 VH with H34V, A62H
VL: B1 VL
notes: hu7E6SVG variant, His at HCV position 62 (H2 13); screened as IgG in Expi293 supernatant
B34: MYT11743 (antibody, V domains shown)
VH: B1 VH with H34V, Y108H
VL: B1 VL
notes: as for B13
B35: MYT11744 (antibody, V domains shown)
VH: B1 VH with H34V
VL: B1 VL with R24H
notes: hu7E6SVG variant, His at LCV position 24 (L1 01); screened as IgG in Expi293 supernatant
B36: MYT11714 (antibody, V domains shown)
VH: B1 VH with H34V, H35A
VL: B1 VL
notes: hu7E6SVG variant, Ala in place of His at HCV position 35 (H1 10); screened as IgG in Expi293 supernatant
B37: MYT11732 (antibody, V domains shown)
VH: B1 VH with H34V, R97H
VL: B1 VL
notes: hu7E6SVG variant, His at HCV position 97 (H3 02); screened as IgG in Expi293 supernatant
B38: MYT11726 (antibody, V domains shown)
VH: B1 VH with H34V, S61H
VL: B1 VL
notes: hu7E6SVG variant, His at HCV position 61 (H2 12); screened as IgG in Expi293 supernatant

target: T1, Human TROP2 Protein, His Tag (Acro …); assay: BLI (Octet) [1/2]
Experimental: After allowing for four days of protein expression, cell culture supernatants were collected, quantified by SDS-PAGE analysis (DNS), and the pH dependence of the variant was evaluated using biolayer interferometry (BLI) on an Octet RED 96e instrument. Briefly, cell culture supernatants were diluted based on qualitative expression level of the variant determined by visual examination of SDS-PAGE gels, 5 μL of cell culture supernatant was diluted into 195 μL of 1×PBST, pH 7.4 for high expressors, 25 μL of cell culture supernatant was diluted into 175 μL of 1×PBST, pH 7.4 for medium expressors and 100 μL of cell culture supernatant was diluted into 100 μL of 1×PBST, pH 7.4 for low expressors for loading onto the sensor tips. The resulting diluted supernatants were then captured on an anti-human Fc sensor (Forte Bio). A baseline was established using 1×PBST (50 mM Potassium Phosphate Buffer+150 mM NaCl+0.05% Tween 20) pH 7.4, and the sensor was associated with 50 nM of TROP2 (Human TROP2 Protein, His Tag, Acro Biosystems) in 1×PBST pH 7.4 for 120 sec to generate an association curve. In the dissociation phase, the antibody-antigen complex on the sensor was exposed to 1×PBST pH 7.4 or pH 5.4, for 300 sec. Association and dissociation phase curves were examined for the starting ABPC antibody (with no substitutions) and each corresponding antibody variant at pH 5.4 and pH 7.4 to inform on two criteria: a) enhanced dissociation (i.e., higher koff values) at pH 5.4 due to histidine or alanine substitution compared to the starting ABPC, (with no substitutions), and b) reduced dissociation at pH 7.4 (i.e., lower koff values) compared to pH 5.4 in the antibody variant itself and with the starting ABPC (with no substitutions). […] It was also noted that while some mutations obliterated TROP2 binding, others were tolerated with little or n change in TROP2 binding kinetics.

Binder | binding result
B1 | binds
B2 | no binding (tested: 50 nM)
B3 | binds
B4 | binds
B5 | no binding (tested: 50 nM)
B6 | binds
B7 | binds
B8 | no binding (tested: 50 nM)
B9 | binds
B10 | no binding (tested: 50 nM)
B11 | binds
B12 | no binding (tested: 50 nM)
B13 | binds
B14 | binds
B15 | no binding (tested: 50 nM)
B16 | binds
B17 | binds
B18 | no binding (tested: 50 nM)
B19 | binds

Binder | binding result
B20 | binds
B21 | binds
B22 | no binding (tested: 50 nM)
B23 | binds
B24 | binds
B25 | binds
B26 | no binding (tested: 50 nM)
B27 | binds
B28 | binds
B29 | binds
B30 | binds
B31 | no binding (tested: 50 nM)
B32 | binds
B33 | binds
B34 | binds
B35 | binds
B36 | binds
B37 | binds
B38 | binds
